# How the values were obtained:
# [1] = target: native 1,8-cineole synthase from sage (Salvia officinalis) (Salvia officinalis, UniProt O81191); settings: read-out: Km (geranyl diphosphate), literature value; native enzyme; Croteau et al., Arch. Biochem. Biophys. 309:184-192, 1994; cited from earlier work
# [2] = target: T1, native (+)-bornyl diphosphate synthase from sage (Salvia officinalis) (Salvia officinalis, UniProt O81192); settings: read-out: Km (geranyl diphosphate), literature value; native enzyme; Croteau et al. 1989, 1990; cited from earlier work
# T1 construct: for the corresponding native enzymes
# [3] = target: the molecule itself; test: calibrated gel permeation chromatography (Superdex S-200); single peak of activity at Mr ~200,000; self-association (homodimer)
# [4] = target: the molecule itself; test: gel permeation re-chromatography after thrombin removal of the GST tag; self-association (homodimer)
# [5] = substrate: CC(C)=CCC/C(C)=C/COP(=O)(O)OP(=O)(O)O; test: cells, lysate or membranes named; settings: other: recombinant SCS; 0.45 to 45 μM [1-3H]geranyl diphosphate, saturating divalent metal ion; likely somewhat high (contaminating phosphatases); pH 6.0; 31.0 °C
molecule,measurement,setting,value
CC(C)=CCC/C(C)=C/COP(=O)(O)OP(=O)(O)O [geranyl diphosphate],Km,[1],1.1 µM
same,Km,[2],2 µM
pGEX fusion form of SBS (glutathione-S-transferase fusion of the sage (+)-bornyl diphosphate synthase preprotein) (enzyme) MSIISMNVSILSKPLNCLHNLERRPSKALLVPCTAPTARLRASCSSKLQEAHQIRRSGNYQPALWDSNYIQSLNTPYTEERHLDRKAELIVQVRILLKEKMEPVQQLELIHDLKYLGLSDFFQDEIKEILGVIYNEHKCFHNNEVEKMDLYFTALGFRLLRQHGFNISQDVFNCFKNEKGIDFKASLAQDTKGMLQLYEASFLLRKGEDTLELAREFATKCLQKKLDEGGNEIDENLLLWIRHSLDLPLHWRIQSVEARWFIDAYARRPDMNPLIFELAKLNFNIIQATHQQELKDLSRWWSRLCFPEKLPFVRDRLVESFFWAVGMFEPHQHGYQRKMAATIIVLATVIDDIYDVYGTLDELELFTDTFKRWDTESITRLPYYMQLCYWGVHNYISDAAYDILKEHGFFCLQYLRKSVVDLVEAYFHEAKWYHSGYTPSLDEYLNIAKISVASPAIISPTYFTFANASHDTAVIDSLYQYHDILCLAGIILRLPDDLGTSYFELARGDVPKTIQCYMKETNASEEEAVEHVKFLIREAWKDMNTAIAAGYPFPDGMVAGAANIGRVAQFIYLHGDGFGVQHSKTYEHIAGLLFEPYA,binding result,[3],binds
SBS protein after thrombin removal of the glutathione-S-transferase fusion tag ((+)-bornyl diphosphate synthase preprotein) (enzyme) MSIISMNVSILSKPLNCLHNLERRPSKALLVPCTAPTARLRASCSSKLQEAHQIRRSGNYQPALWDSNYIQSLNTPYTEERHLDRKAELIVQVRILLKEKMEPVQQLELIHDLKYLGLSDFFQDEIKEILGVIYNEHKCFHNNEVEKMDLYFTALGFRLLRQHGFNISQDVFNCFKNEKGIDFKASLAQDTKGMLQLYEASFLLRKGEDTLELAREFATKCLQKKLDEGGNEIDENLLLWIRHSLDLPLHWRIQSVEARWFIDAYARRPDMNPLIFELAKLNFNIIQATHQQELKDLSRWWSRLCFPEKLPFVRDRLVESFFWAVGMFEPHQHGYQRKMAATIIVLATVIDDIYDVYGTLDELELFTDTFKRWDTESITRLPYYMQLCYWGVHNYISDAAYDILKEHGFFCLQYLRKSVVDLVEAYFHEAKWYHSGYTPSLDEYLNIAKISVASPAIISPTYFTFANASHDTAVIDSLYQYHDILCLAGIILRLPDDLGTSYFELARGDVPKTIQCYMKETNASEEEAVEHVKFLIREAWKDMNTAIAAGYPFPDGMVAGAANIGRVAQFIYLHGDGFGVQHSKTYEHIAGLLFEPYA,binding result,[4],binds
"Salvia officinalis 1,8-cineole synthase (SCS), recombinant, clone 3B5, SEQ ID No:4 (Salvia officinalis) (protein) RRTGGYQPTLWDFSTIQLFDSEYKEEKHLMRAAGMIAQVNMLLQEEVDSIQRLELIDDLRRLGISCHFDREIVEILNSKYYTNNEIDESDLYSTALRFKLLRQYDFSVSQEVFDCFKNDKGTDFKPSLVDDTRGLLQLYEASFLSAQGEETLHLARDFATKFLHKRVLVDKDINLLSSIERALELPTHWRVQMPNARSFIDAYKRRPDMNPTVLELAKLDFNMVQAQFQQELKEASRWWNSTGLVHELPFVRDRIVECYYWTTGVVERREHGYERIMLTKINALVTTIDDVFDIYGTLEELQLFTTAIQRWDIESMKQLPPYMQICYLALFNFVNEMAYDTLRDKGFNSTPYLRKAWVDLVESYLIEAKWYYMGHKPSLEEYMKNSWISIGGIPILSHLFFRLTDSIEEEDAESMHKYHDIVRASCTILRLADDMGTSLDEVERGDVPKSVQCYMNEKNASEEEAREHVRSLIDQTWKMMNKEMMTSSFSKYFVQVSANLARMAQWIYQHESDGFGMQHSLVNKMLRGLLFDRYE",Km,[5],7.0 µM

# Reference: patent publication US5891697A, “Monoterpene synthases from common sage (Salvia officinalis)” (Washington State University Research Foundation, priority 1997, dated 1999)
